Sequences and labels used below:
B1: Hammerhead Ribozyme (parent)
chain: ACCGGAUGUGCUUUCCGGUCUGAUGAGUCCGUGAGGACGAAACAG

In the data set the parent is B1. The experiment in a line: self-cleavage, relative activity (ratio to wild type); higher = more cleavage; co-transcriptional.
As for ACCGGAGGUGCUUUCCGGUCUGAUGAGUCCGUGCGGACGAAACAG [U7G A34C], the self-cleavage turned out to be 1.44.
With ACCGGAGGUGCUUUCCGGUCUGAUGAGUCCGUGUGGACGAAACAG [U7G A34U], the self-cleavage is 1.53.
Take ACCGGAGGUGCUUUCCGGUCUGAUGAGUCCGUGGGGACGAAACAG [U7G A34G]: the self-cleavage was 1.67.
With ACCGGAGGUGCUUUCCGGUCUGAUGAGUCCGUGAGGACGAAGCAG [U7G A42G], the self-cleavage was 0.33.
Then ACCGGAGGUGCUUUCCGGUCUGAUGAGUCCGUGAGGACGAAUCAG [U7G A42U], with 0.326; and ACCGGAGGUGCUUUCCGGUCUGAUGAGUCCGUGAGGACGAACCAG [U7G A42C], with 0.271; and ACCGGAGGUGCUUUCCGGUCUGAUGAGUCCGUGAGGACGAAACUG [U7G A44U], with 0.422.
Regarding ACCGGAGGUGCUUUCCGGUCUGAUGAGUCCGUGAGGACGAAACGG [U7G A44G], the self-cleavage is 1.82.
On to ACCGGAGGUGCUUUCCGGUCUGAUGAGUCCGUGAGGACGAAACCG [U7G A44C], for which the self-cleavage is 0.411.
With ACCGGACGUGCUUUCCGGUCUGAUGAGCCCGUGAGGACGAAACAG [U7C U28C], the self-cleavage stood at 0.792.
As for ACCGGACGUGCUUUCCGGUCUGAUGAGACCGUGAGGACGAAACAG [U7C U28A], the self-cleavage amounted to 0.504.
ACCGGACGUGCUUUCCGGUCUGAUGAGGCCGUGAGGACGAAACAG [U7C U28G]: the self-cleavage amounted to 0.538.
Consider ACCGGACGUGCUUGCCGGUCUGAUGAGUCCGUGAGGACGAAACAG [U7C U14G], for which the self-cleavage was found to be 0.975.
As to ACCGGACGUGCUUCCCGGUCUGAUGAGUCCGUGAGGACGAAACAG [U7C U14C], the self-cleavage is 0.585.
As for ACCGGACGUGCUUACCGGUCUGAUGAGUCCGUGAGGACGAAACAG [U7C U14A], the self-cleavage was determined as 1.26.
In the case of ACCGGAGGUGUUUUCCGGUCUGAUGAGUCCGUGAGGACGAAACAG [U7G C11U], the self-cleavage was determined as 1.12.
Then ACCGGAGGUGGUUUCCGGUCUGAUGAGUCCGUGAGGACGAAACAG [U7G C11G], with 1.52; and ACCGGAGGUGAUUUCCGGUCUGAUGAGUCCGUGAGGACGAAACAG [U7G C11A], with 1.6.
Consider ACCGGACGUGCUUUCCGGCCUGAUGAGUCCGUGAGGACGAAACAG [U7C U19C], for which the self-cleavage was found to be 0.526.
ACCGGACGUGCUUUCCGGGCUGAUGAGUCCGUGAGGACGAAACAG [U7C U19G]: the self-cleavage was 0.413.
As to ACCGGACGUGCUUUCCGGACUGAUGAGUCCGUGAGGACGAAACAG [U7C U19A], the self-cleavage was found to be 0.397.
In the case of ACCGGAGGUGCUUUCCGGUCUGAUGAGUCCGUGAGGACGACACAG [U7G A41C], the self-cleavage came to 0.422.
As for ACCGGAGGUGCUUUCCGGUCUGAUGAGUCCGUGAGGACGAUACAG [U7G A41U], the figure is 0.342; as for ACCGGAGGUGCUUUCCGGUCUGAUGAGUCCGUGAGGACGAGACAG [U7G A41G], 0.408; as for ACCGGAGGUGCUUUCCGGUCUGAUGCGUCCGUGAGGACGAAACAG [U7G A26C], 0.265.
As to ACCGGAGGUGCUUUCCGGUCUGAUGGGUCCGUGAGGACGAAACAG [U7G A26G], the self-cleavage was determined as 0.289.
For the variant ACCGGAGGUGCUUUCCGGUCUGAUGUGUCCGUGAGGACGAAACAG [U7G A26U], the self-cleavage amounted to 0.717.
Turning to ACCGGACGUGCUUUCCGGUCUGACGAGUCCGUGAGGACGAAACAG [U7C U24C], the self-cleavage came to 1.24.
As for ACCGGACGUGCUUUCCGGUCUGAAGAGUCCGUGAGGACGAAACAG [U7C U24A], the self-cleavage worked out at 1.4.
Then ACCGGACGUGCUUUCCGGUCUGAGGAGUCCGUGAGGACGAAACAG [U7C U24G], with 0.742; and ACCGGAGGUGCUUUCCGGUAUGAUGAGUCCGUGAGGACGAAACAG [U7G C20A], with 0.359.
Take ACCGGAGGUGCUUUCCGGUGUGAUGAGUCCGUGAGGACGAAACAG [U7G C20G]: the self-cleavage was determined as 0.386.
As for ACCGGAGGUGCUUUCCGGUUUGAUGAGUCCGUGAGGACGAAACAG [U7G C20U], the figure is 0.447.
As for ACCGGACGUGCUUUCCGGUCUGAUGAGUCCGGGAGGACGAAACAG [U7C U32G], the self-cleavage came to 0.626.
With ACCGGACGUGCUUUCCGGUCUGAUGAGUCCGAGAGGACGAAACAG [U7C U32A], the self-cleavage is 1.02.
For ACCGGACGUGCUUUCCGGUCUGAUGAGUCCGCGAGGACGAAACAG [U7C U32C], the self-cleavage came out at 0.949.
In the case of ACCGGACGUGCUUUCCGGUCCGAUGAGUCCGUGAGGACGAAACAG [U7C U21C], the self-cleavage was determined as 0.403.
In the case of ACCGGACGUGCUUUCCGGUCGGAUGAGUCCGUGAGGACGAAACAG [U7C U21G], the self-cleavage came out at 0.449.
For the variant ACCGGACGUGCUUUCCGGUCAGAUGAGUCCGUGAGGACGAAACAG [U7C U21A], the self-cleavage is 0.327.
On to ACCGGAGGUGCUUUCCGGUCUGAUGAGUCCGUGAGGACGAAACAG [U7G], for which the self-cleavage turned out to be 1.37.
As for ACCGGAGGUGCUUUGCGGUCUGAUGAGUCCGUGAGGACGAAACAG [U7G C15G], the figure is 0.699; as for ACCGGAGGUGCUUUACGGUCUGAUGAGUCCGUGAGGACGAAACAG [U7G C15A], 0.89; as for ACCGGAGGUGCUUUUCGGUCUGAUGAGUCCGUGAGGACGAAACAG [U7G C15U], 1.26.
In the case of ACCGGACGUGCUGUCCGGUCUGAUGAGUCCGUGAGGACGAAACAG [U7C U13G], the self-cleavage is 0.7.
Then ACCGGAGGUGCUUUCCGGUCUGAUGAGUCCGUGAGGGCGAAACAG [U7G A37G], with 0.928.
With ACCGGAGGUGCUUUCCGGUCUGAUGAGUCCGUGAGGUCGAAACAG [U7G A37U], the self-cleavage amounted to 0.683.
Consider ACCGGAGGUGCUUUCCGGUCUGAUGAGUCCGUGAGGCCGAAACAG [U7G A37C], for which the self-cleavage was 1.29.
Then ACCGGAGGUGCUUUCCGGUCUGAUGAGUCCGUGAGGACGGAACAG [U7G A40G], with 0.291; and ACCGGAGGUGCUUUCCGGUCUGAUGAGUCCGUGAGGACGCAACAG [U7G A40C], with 0.396; and ACCGGAGGUGCUUUCCGGUCUGAUGAGUCCGUGAGGACGUAACAG [U7G A40U], with 0.401.
In the case of ACCGGAGGUGCUUUCGGGUCUGAUGAGUCCGUGAGGACGAAACAG [U7G C16G], the self-cleavage came to 0.765.
Take ACCGGAGGUGCUUUCAGGUCUGAUGAGUCCGUGAGGACGAAACAG [U7G C16A]: the self-cleavage was determined as 0.989.
In the case of ACCGGAGGUGCUUUCUGGUCUGAUGAGUCCGUGAGGACGAAACAG [U7G C16U], the self-cleavage is 1.4.
Turning to ACCGGAGGUGCUUUCCGGUCUGAUGAGUACGUGAGGACGAAACAG [U7G C29A], the self-cleavage turned out to be 0.642.
Then ACCGGAGGUGCUUUCCGGUCUGUUGAGUCCGUGAGGACGAAACAG [U7G A23U], with 0.228.
Turning to ACCGGAGGUGCUUUCCGGUCUGCUGAGUCCGUGAGGACGAAACAG [U7G A23C], the self-cleavage came out at 0.243.
On to ACCGGAGGUGCUUUCCGGUCUGGUGAGUCCGUGAGGACGAAACAG [U7G A23G], for which the self-cleavage was found to be 0.273.

Source of the values: the RNAGym collection of RNA variant scans (doi:10.7554/elife.80360).
